# In IntAct's records for PubMed 11356864:
# B1: Syndecan-2 (Rattus norvegicus (Rat)), P34900 (parent)
# chain: MQRAWILLTLGLMACVSAETRAELTSDKDMYLDSSSIEEASGLYPIDDDDYSSASGSGAYEDKGSPDLTTSQLIPRISLTSAAPEVETMTLKTQSITPTQTESPEETDKKEFEISEAEEKQDPAVKSTDVYTEKHSDNLFKRTEVLAAVIAGGVIGFLFAIFLILLLVYRMRKKDEGSYDLGERKPSSAAYQKAPTKEFYA
# Variants of: B1
# Settings: with nf1_human NF1, P21359
# nf1_human NF1, P21359, sequence (P21359 whole entry): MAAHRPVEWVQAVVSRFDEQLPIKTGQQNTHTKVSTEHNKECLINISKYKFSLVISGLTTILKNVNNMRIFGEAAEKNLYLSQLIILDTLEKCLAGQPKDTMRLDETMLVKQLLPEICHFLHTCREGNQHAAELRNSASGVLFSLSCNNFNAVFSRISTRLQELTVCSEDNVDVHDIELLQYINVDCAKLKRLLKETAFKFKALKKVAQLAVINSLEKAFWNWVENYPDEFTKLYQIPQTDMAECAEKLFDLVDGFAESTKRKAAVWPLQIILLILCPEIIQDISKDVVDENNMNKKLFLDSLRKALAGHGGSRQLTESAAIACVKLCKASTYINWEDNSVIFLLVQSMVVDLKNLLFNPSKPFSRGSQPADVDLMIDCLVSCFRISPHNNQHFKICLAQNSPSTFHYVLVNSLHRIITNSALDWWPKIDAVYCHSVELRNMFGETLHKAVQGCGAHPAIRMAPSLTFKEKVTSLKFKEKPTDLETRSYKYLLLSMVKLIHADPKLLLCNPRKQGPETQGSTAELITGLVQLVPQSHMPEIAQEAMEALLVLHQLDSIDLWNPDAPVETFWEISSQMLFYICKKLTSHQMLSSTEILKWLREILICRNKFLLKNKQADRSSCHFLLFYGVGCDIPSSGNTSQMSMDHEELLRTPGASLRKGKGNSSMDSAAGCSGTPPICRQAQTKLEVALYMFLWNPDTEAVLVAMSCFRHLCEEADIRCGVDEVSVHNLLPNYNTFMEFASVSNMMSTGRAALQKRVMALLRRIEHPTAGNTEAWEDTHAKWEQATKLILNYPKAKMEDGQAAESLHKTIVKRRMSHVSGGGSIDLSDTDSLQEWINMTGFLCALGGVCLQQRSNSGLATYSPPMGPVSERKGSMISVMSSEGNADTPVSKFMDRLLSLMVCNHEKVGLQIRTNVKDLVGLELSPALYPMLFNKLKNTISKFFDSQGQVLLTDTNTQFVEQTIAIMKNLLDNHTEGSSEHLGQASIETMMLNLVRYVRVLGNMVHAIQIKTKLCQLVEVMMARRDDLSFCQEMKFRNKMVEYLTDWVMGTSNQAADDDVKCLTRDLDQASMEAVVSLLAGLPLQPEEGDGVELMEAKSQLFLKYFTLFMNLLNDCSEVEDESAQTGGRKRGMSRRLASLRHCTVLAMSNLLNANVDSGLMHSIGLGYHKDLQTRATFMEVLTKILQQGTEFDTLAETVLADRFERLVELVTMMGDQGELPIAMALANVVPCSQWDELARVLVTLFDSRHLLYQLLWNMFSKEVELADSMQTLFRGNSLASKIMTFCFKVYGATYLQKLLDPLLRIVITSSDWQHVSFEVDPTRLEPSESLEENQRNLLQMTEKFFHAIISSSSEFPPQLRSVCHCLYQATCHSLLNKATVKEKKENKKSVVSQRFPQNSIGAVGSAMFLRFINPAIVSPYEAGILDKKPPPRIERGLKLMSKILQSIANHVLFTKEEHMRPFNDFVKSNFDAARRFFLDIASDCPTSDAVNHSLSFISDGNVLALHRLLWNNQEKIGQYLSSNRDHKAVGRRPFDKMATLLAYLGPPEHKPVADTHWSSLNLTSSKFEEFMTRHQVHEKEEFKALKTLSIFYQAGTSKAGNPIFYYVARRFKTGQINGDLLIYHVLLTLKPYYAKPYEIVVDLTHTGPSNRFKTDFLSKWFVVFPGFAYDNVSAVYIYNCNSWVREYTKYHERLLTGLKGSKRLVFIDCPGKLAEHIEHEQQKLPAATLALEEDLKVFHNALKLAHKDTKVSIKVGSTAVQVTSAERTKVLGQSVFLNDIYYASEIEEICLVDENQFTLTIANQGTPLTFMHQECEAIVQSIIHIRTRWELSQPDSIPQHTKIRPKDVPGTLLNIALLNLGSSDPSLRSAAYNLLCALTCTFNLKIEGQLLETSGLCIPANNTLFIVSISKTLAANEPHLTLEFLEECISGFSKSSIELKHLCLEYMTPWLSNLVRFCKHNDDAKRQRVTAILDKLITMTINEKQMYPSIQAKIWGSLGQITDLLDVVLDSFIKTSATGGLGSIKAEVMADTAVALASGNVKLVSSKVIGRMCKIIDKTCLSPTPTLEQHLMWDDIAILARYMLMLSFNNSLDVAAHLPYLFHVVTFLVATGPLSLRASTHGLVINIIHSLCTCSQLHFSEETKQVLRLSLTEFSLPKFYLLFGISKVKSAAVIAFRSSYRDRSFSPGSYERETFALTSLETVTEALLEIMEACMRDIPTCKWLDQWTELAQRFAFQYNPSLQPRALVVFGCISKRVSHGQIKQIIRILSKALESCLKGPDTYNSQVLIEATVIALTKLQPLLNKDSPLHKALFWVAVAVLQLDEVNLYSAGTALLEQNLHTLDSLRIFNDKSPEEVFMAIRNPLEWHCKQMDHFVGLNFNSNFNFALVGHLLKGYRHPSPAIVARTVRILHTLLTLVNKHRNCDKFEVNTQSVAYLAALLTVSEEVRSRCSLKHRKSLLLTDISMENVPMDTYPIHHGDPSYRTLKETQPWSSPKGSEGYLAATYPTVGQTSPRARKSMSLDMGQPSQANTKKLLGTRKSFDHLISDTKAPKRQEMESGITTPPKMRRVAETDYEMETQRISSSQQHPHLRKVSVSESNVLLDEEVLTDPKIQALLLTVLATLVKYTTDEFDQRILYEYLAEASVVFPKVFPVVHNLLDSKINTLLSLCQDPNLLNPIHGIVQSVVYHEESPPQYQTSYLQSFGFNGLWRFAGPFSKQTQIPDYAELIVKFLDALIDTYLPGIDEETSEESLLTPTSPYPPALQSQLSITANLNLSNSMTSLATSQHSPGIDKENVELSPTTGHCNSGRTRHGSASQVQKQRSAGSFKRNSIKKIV
row,Variant,effect of a mutation on the interaction
1,S178A;Y179A,increasing interaction
2,K174A;D175A,decreasing interaction
3,R172A;K173A,decreasing interaction
4,E176A;G177A,decreasing interaction

# Variants of: B1
# Settings: with nf1_human NF1, P21359
# Remark: another data set of the same source
row,Variant,effect of a mutation on the interaction
1,S178A;Y179A,decreasing interaction
